No end group written: not given here.
Target: acetylcholine receptor on AchR-overexpressed TE671 cells
Assay: cell-based or functional assay

Binder	AchR inhibitory rate, TE671 cells, 400 µM nicotine, 20 µM peptide	IC50 value for AchR (AchR inhibitory effect in TE671 cells)	AchR inhibitory effect, Fura-2 fluorescence in TE671 cells after 1 µM acetylcholine	AchR inhibition, TE671 cells, 400 µM nicotine	inhibitory ability on nicotinic acetylcholine receptors, in multiples compared with Spep-2
RFRRGVRR [L1-13]	~100%	–	–	–	–
WTWKGRKSLLR (also: palmitoyl conjugated, site not given here) [Palmitoyl-Spep-2]	–	75 nM	–	–	–
WTWKGNKQVKF [Spep-10]	–	–	47%	–	–
PNGKVRKRIRRRYF [L3-28]	~100%	–	–	100%	16 times
WTWKGRDKLQM [Spep-4]	–	–	17%	–	–
RYAKHRKRQTR [L2-110]	~100%	–	–	100%	8 times
WTWKGRKSLLR [Spep-2]	~10%	750 nM	–	100%	–
RARKKRKSLLRRQV [L3-27]	~100%	–	–	100%	8 times
SNVKRKRGRCKPYR [L3-37]	~100%	–	–	–	32 times

Reference: patent publication US20220110851A1 (SKINMED, published 2022)
